According to patent US20040001839A1, “Multimers - isolated molecules comprising epitopes containing sulfated moieties, antibodies to such epitopes, and uses thereof” (priority 2000, published 2004):
No end group written: not given here. *: point of attachment. sulfate = O=S(=O)(O)*

T1: PSGL-1 on KG-1 cells (human) (UniProt Q14242)
T1 sequence (sulfated tyrosine residues at the N-terminal site, looked up): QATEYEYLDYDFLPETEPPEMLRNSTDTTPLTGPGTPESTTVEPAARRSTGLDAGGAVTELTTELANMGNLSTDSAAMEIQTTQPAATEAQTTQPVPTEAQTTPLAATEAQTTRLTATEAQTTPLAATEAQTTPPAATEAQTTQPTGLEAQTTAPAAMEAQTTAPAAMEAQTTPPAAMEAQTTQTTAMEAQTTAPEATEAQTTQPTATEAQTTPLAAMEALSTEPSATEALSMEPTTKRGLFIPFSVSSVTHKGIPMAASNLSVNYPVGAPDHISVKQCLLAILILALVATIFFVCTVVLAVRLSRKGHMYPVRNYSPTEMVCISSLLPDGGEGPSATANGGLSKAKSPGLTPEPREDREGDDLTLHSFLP


Columns and labels:
Y1 scFv [1] = assay: competition ELISA: Y1 0.25 µg/well preincubated with peptide at 25 µM, residual binding to glycocalicin; conditions: remark: other sources report otherwise
Y1 scFv [2] = assay: competition ELISA: Y1 0.25 µg/well preincubated with peptide at 0.5 µM, residual binding to glycocalicin; conditions: remark: other sources report otherwise
Y1 scFv [3] = assay: competition ELISA: Y1 0.25 µg/well preincubated with peptide at 2.5 µM, residual binding to glycocalicin; conditions: remark: other sources report otherwise
Y1 scFv [4] = assay: competition ELISA: Y1 0.25 µg/well preincubated with peptide at 200 µM, residual binding to glycocalicin; conditions: remark: other sources report otherwise
Y1 scFv [5] = assay: competitive FACS: Y1-scFv 1 µg preincubated with peptide at 2.5 µM, residual binding to washed platelets; conditions: remark: other sources report otherwise
Y1 scFv [6] = assay: competitive FACS: Y1-scFv 1 µg preincubated with peptide at 200 µM, residual binding to washed platelets; conditions: remark: other sources report otherwise
[7] = target: T1, PSGL-1 on KG-1 cells (human); assay: FACS, KG-1 cells
[8] = target: T1, PSGL-1 on KG-1 cells (human); assay: FACS on KG-1 cells
[9] = target: T1, PSGL-1 on KG-1 cells (human); assay: FACS, KG-1 cells, 5 ng tetramers

Sequence of Y1 scFv (chain, as listed by the source): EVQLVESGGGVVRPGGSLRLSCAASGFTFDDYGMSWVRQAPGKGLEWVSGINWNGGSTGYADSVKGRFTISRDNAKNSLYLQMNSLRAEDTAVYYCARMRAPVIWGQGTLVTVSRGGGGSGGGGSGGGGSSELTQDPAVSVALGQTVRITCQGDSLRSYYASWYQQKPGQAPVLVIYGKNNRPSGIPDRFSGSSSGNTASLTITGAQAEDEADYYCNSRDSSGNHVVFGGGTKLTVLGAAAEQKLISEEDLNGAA

Binder	Residual Binding of Y1 (% of baseline) (Y1 scFv [1]) [%]	Residual Binding of Y1 (% of baseline) (Y1 scFv [2]) [%]	Residual Binding of Y1 (% of baseline) (Y1 scFv [3]) [%]	Residual Binding of Y1 (% of baseline) (Y1 scFv [4]) [%]	Residual Binding of Y1 (% of baseline) (Geo Mean) (Y1 scFv [5]) [%]	Residual Binding of Y1 (% of baseline) (Geo Mean) (Y1 scFv [6]) [%]	fold more reactive [7] [fold]	fold increase in sensitivity of the binding [8] [fold]	fold higher response than other Y1 antibody forms [9] [fold]
GDEGDTDLY(sulfate)DY(sulfate)Y(sulfate)PEEDTE [P-1-S]	25	89	62	0	41	5	–	–	–
Y1-biotag tetramers with streptavidin-PE (protein, part only; not given: streptavidin-PE carrier, not shown: another chain or arm of the molecule; large carriers; small tags and cut ends, Each chain pos 251: Lys of the BirA tag carries biotin, written K. The four chains are held non-covalently on streptavidin conjugated to phycoerythrin, which is not given.) scFv 1: MEVQLVESGGGVVRPGGSLRLSCAASGFTFDDYGMSWVRQAPGKGLEWVSGINWNGGSTGYADSVKGRFTISRDNAKNSLYLQMNSLRAEDTAVYYCARMRAPVIWGQGTLVTVSRGGGGSGGGGSGGGGSSELTQDPAVSVALGQTVRITCQGDSLRSYYASWYQQKPGQAPVLVIYGKNNRPSGIPDRFSGSSSGNTASLTITGAQAEDEADYYCNSRDSSGNHVVFGGGTKLTVLGGGGLNDIFEAQKIEWHE scFv 2: MEVQLVESGGGVVRPGGSLRLSCAASGFTFDDYGMSWVRQAPGKGLEWVSGINWNGGSTGYADSVKGRFTISRDNAKNSLYLQMNSLRAEDTAVYYCARMRAPVIWGQGTLVTVSRGGGGSGGGGSGGGGSSELTQDPAVSVALGQTVRITCQGDSLRSYYASWYQQKPGQAPVLVIYGKNNRPSGIPDRFSGSSSGNTASLTITGAQAEDEADYYCNSRDSSGNHVVFGGGTKLTVLGGGGLNDIFEAQKIEWHE scFv 3: MEVQLVESGGGVVRPGGSLRLSCAASGFTFDDYGMSWVRQAPGKGLEWVSGINWNGGSTGYADSVKGRFTISRDNAKNSLYLQMNSLRAEDTAVYYCARMRAPVIWGQGTLVTVSRGGGGSGGGGSGGGGSSELTQDPAVSVALGQTVRITCQGDSLRSYYASWYQQKPGQAPVLVIYGKNNRPSGIPDRFSGSSSGNTASLTITGAQAEDEADYYCNSRDSSGNHVVFGGGTKLTVLGGGGLNDIFEAQKIEWHE scFv 4: MEVQLVESGGGVVRPGGSLRLSCAASGFTFDDYGMSWVRQAPGKGLEWVSGINWNGGSTGYADSVKGRFTISRDNAKNSLYLQMNSLRAEDTAVYYCARMRAPVIWGQGTLVTVSRGGGGSGGGGSGGGGSSELTQDPAVSVALGQTVRITCQGDSLRSYYASWYQQKPGQAPVLVIYGKNNRPSGIPDRFSGSSSGNTASLTITGAQAEDEADYYCNSRDSSGNHVVFGGGTKLTVLGGGGLNDIFEAQKIEWHE	–	–	–	–	–	–	> 100	> 100	10 to 20
